The values that follow come from patent US7670806B2, “ADP-ribosyl acceptor hydrolase 3 (ARH3) polypeptides and methods of use” (The United States of America as represented by the …, priority 2005, dated 2010).

Data set [1] has as its system NIH3T3 cells. The experiment in a line: Effect of H2O2 on ARH3-transfected NIH3T3 cells (Cell-Counting Kit-8). The data set is classed as cell-based. The conditions noted are these: stably ARH3 cDNA-transfected NIH3T3 cells vs empty vector; H2O2 for 24 hours. How it is done: FIG. 16 is a line graph showing the effect of H2O2 on ARH3-transfected NIH3T3 cells. NIH3T3 cells were transfected with ARH3 cDNA using Lipofectamin transfection reagent (INVITROGEN™). After transfection, the cells were cultured and exposed to 200 μg/ml of Hygromycin G (INVITROGEN™) for 3-4 weeks to select stably transfected clones. Positive clones derived from single Hygromycin G-resistant cells were then isolated by cloning rings and further grown under the same conditions. As controls, NIH3T3 cells were transfected with an empty pcDNA3.1 vector (INVITROGEN™) and subjected to the same selection and cloning procedures as described above. The cells were plated in 96-well plates at 1×10^4 cells/well, and incubated for 24 h at 37° C. in a humidified incubator. The cells were then challenged at the indicated concentrations of H2O2 for 24 hours. Cell survival was determined by using Cell-Counting Kit-8 (Dojindo). The experiments were repeated twice with similar results.
To test the role of ARH3 in the cellular response to oxidative stress, NIH3T3 cells were transfected with ARH3 cDNA using Lipofectamin transfection reagent (Invitrogen). […]
The cells were plated in 96-well plates at 1×10^4 cells/well, and incubated for 24 hours at 37° C. in a humidified incubator. […] Cell viability was determined by using Cell-Counting Kit-8 (Dojindo). […]

Data set [2] is described as follows: Hydrolysis of O-acetyl-[14C]ADP-ribose by ARH proteins / PARG (RP-HPLC). The data set is classed as biochemical. The method, then: FIG. 13A is a graph illustrating the results from incubation of 1.5 pmol of mouse ARH3 with or without 5 mM DTT and/or 10 mM MgCl2 as described in FIG. 11B with incubation for 1 h at 30° C. FIG. 13B is a graph illustrating the results from incubation of 1.5 pmol of wild type or mutant human (D77-78) ARH3 or 20 mU of PARG for 2 h at 30° C. *D77,78, assays incubated with 15 pmol of mutant human ARH3 (D77, D78).
FIG. 14A is a graph of the results from incubation with the indicated amount of mouse ARH1, 2, or 3 for 2 h at 30° C. FIG. 14B is a graph of the results from incubation with 230 pmol of mouse ARH1 at 30° C. for the indicated time.
Mouse ARH3 (2 pmol) and 2.5 μM O-acetyl-[^14C]ADP-ribose (5,000 cpm) in 200 μl of buffer containing 50 mM potassium phosphate (pH 7.0), 10 mM MgCl2 and 5 mM DTT were incubated for 2 h at 30° C., before separation of substrate and products using RP-HPLC as described below.
Hydrolysis of O-acetyl-[^14C]ADP-ribose catalyzed by ARH3. Assays containing the indicated concentration of O-acetyl-[^14C]-ADP-ribose (0.1 to 2 nmol, 1,000 to 20,000 cpm) and 1.5 pmol of ARH3 in 200 μl of buffer (50 mM KPO4 (pH 7.0), 10 mM MgCl2, 5 mM DTT) were incubated at 30° C. for 20 min. Substrate and products were separated using RP-HPLC. Amounts of product were corrected for ADP-ribose produced in the absence of ARH3 before calculation of hydrolysis rates.
Because O-acetyl-ADP-ribose was known to be hydrolyzed at alkaline pH Tanny and Moazed (2001), Proc Natl Acad Sci USA. 98(2):415-20, Epub Dec. 26, 2000), it was generated at pH 7.0 in the presence of [^14C-adenine] β-NAD, Sir2, and acetylated histone H3 peptide (FIG. 11A), and the products of Sir2 and ARH3 were analyzed using reverse-phase HPLC at the same pH (FIGS. 11A,B). The products of the ARH3-catalyzed reaction were also analyzed by high resolution-polyacrylamide gel electrophoresis (FIG. 11C). O-acetyl-[^14C]ADP-ribose hydrolase activity was time and ARH3 dependent (FIG. 12) and essentially completely dependent on Mg^2+ (FIG. 13A).
O-acetyl-ADP-ribose hydrolysis by ARH1 was time and ARH1 dependent (FIG. 14b).

A short description of data set [3]: Poly(ADP-ribose) hydrolysis (autoradiography, high resolution PAGE, HPLC). Type of data set: biochemical. How it is done: Poly(ADP-ribose) hydrolysis by autoradiography. [^32P]poly(ADP-ribose)PARP (500 ng of PARP with poly(ADP-ribose) was incubated (37° C., 2 h) with 2 μM ARH in 25 μl of 50 mM potassium phosphate buffer, pH 7.5, with or without 10 mM MgCl2 and/or 5 mM DTT. Reactions were stopped by adding 6 μl of 5× Laemmli buffer. Samples (20 μl) of proteins were separated by SDS-PAGE in 4-20% gels and transferred to nitrocellulose membranes that were exposed to X-ray film (Kodak) for 10 h.
Hydrolysis of poly(ADP-ribose) by PARG and ARH3. Purified [^32P] poly(ADP-ribose) (5.5×10^5 cpm, ˜300 nM ADP-ribose) was incubated for the indicated time at 37° C. in 25 μl of 50 mM potassium phosphate, pH 7.5, containing 10 mM MgCl2 and 5 mM DTT with enzyme or other additions as indicated and terminated by addition of 25 μl of 2× electrophoresis buffer (Invitrogen). [^32P]AMP was generated by incubation (37° C., 3 h) of 10 μM [^32P] NAD (10 μCi/reaction) with pyrophosphatase (40 units/mg from SIGMA, 1 mg/ml) in 25 μl of 50 mM KPO4, pH 7.5, and 10 mM MgCl2. [^32P] ADP-ribose was generated in a 25 μl mixture containing 50 mM KPO4, pH 7.5, 25 μg of activated CTA, 10 μM [^32P] NAD (10 μCi/reaction), 10 mM MgCl2, and 5 mM DTT, which was incubated at 30° C. overnight. [^32P] phosphoribosyl-AMP was generated by incubation (37° C., 3 h) of [^32P]poly(ADP-ribose) (5.5×10^5 cpm, ˜300 nM ADP-ribose) with Crotalus adamanteus phosphodiesterase (10 mU/reaction), 25 μl of 50 mM KPO4, pH 7.5, 10 mM MgCl2, and 5 mM DTT. Identities of AMP and ADP-ribose standards were confirmed by HPLC on C18 and SAX columns respectively.
High resolution Polyacrylamide Gel Electrophoresis (PAGE). Polyacrylamide (20%) gels (20×20×0.15 cm) containing polyacrylamide and bis(acrylamide), in a ratio of 19:1, 100 mM Tris-borate, pH 8.3, 2 mM EDTA, 4.4 mM ammonium persulfate, and 3.4 mM TEMED with electrophoresis carried out for 2 h at 400V with 50 mM Tris-borate, pH 8.3, 1 mM EDTA, before application of samples (15 μl) were used for analysis of poly(ADP-ribose) degradation. Subsequent electrophoresis at 400V was stopped when bromophenol blue (BPB) had moved 9 cm from the origin. Gels were exposed to X-ray films (Kodak).
HPLC analysis. HPLC, Hewlett-Packard series 1100 equipped with a diode-array spectrophotometric detector set at 254 nm, was used for separation of reaction products. For anion exchange perfusion chromatography, Zorbax SAX column (4.6×250 mm; DuPont, Wilmington Del.) was washed with 20 mM potassium phosphate, pH 4.5, for 30 min, followed by a linear gradient of 0-1M NaCl in the same buffer for 10 min (30-40 min), then same buffer with 1M NaCl for 10 min (40-50 min) at a flow rate of 1 ml/min. Nicotinamide was eluted at 3 min, NAD at 10 min, and ADP-ribose at 40 min. For reverse phase, Discovery C18 column (4.6×250 mm; SUPELCO, Bellefonte Pa.) was used. Samples were separated isocratically with 100 mM potassium phosphate, pH 6.0 containing 7% methanol at a same flow rate of 1 ml/min. ADP-ribose was eluted at 6 min, NAD at 8 min, nicotinamide 9 min.
Poly(ADP-ribose)PARP was used as substrate to assay potential poly(ADP-ribose) hydrolase activities of recombinant ARH1, 2 or 3. Products were identified by autoradiography and HPLC. Fractions (1 ml) were collected for liquid scintillation counting to quantify [^14C]ADP-ribose, which was eluted in fractions from 34 min to 43 min. Because ARH1 activity may require both DTT and Mg^2+, depending on species (Takada et al. (1993) J. Biol. Chem. 268:17837-17843; Moss et al. (1992) J. Biol. Chem. 267:10481-10488), these reactions were performed with or without 10 mM MgCl2, and/or 5 mM DTT. […] Degradation of [^32P]poly(ADP-ribose) by ARH3 was enhanced by 10 mM MgCl2 (FIG. 4A). Data were similar with mouse ARH3.
Samples of [^14C] ADP-ribosylated PARP (250 ng, 15,000 cpm, ˜850 nM ADP-ribose) were incubated at 37° C. (total volume, 100 μl) with human ARH3 as indicated. […]

Data set [4] is described as follows: ADP-ribose binding assay. The conditions noted are these: 1 μM ARH3, 3 μM [14C]ADP-ribose, 30° C., 16 h. How it is done:
ADP-ribose binding assay. [^14C]ADP-ribose was generated by incubation overnight at 30° C. of 80 μM (10 μCi) [adenine-U-^14C]NAD with 50 μl of RT6.2 solution (5 nmol/h NADase activity; gift from Dr. Sunhee Park, NHLBI, National Institutes of Health, Bethesda, Md.) in 250 μl of 50 mM potassium phosphate, pH 7.5, and purified by HPLC using Zorbax Sax column as described above. [^14C]ADP-ribose, eluted at 40 min, was stored at −20° C.
To assess protein binding, 1 μM human wild type or D77N/D78N mutant ARH3 was incubated (30° C., 16 h) with 3 μM [^14C]ADP-ribose in 50 mM potassium phosphate buffer, pH 7.5, without or with 10 mM MgCl2, and/or 5 mM DTT (total volume 100 μl). A sample (90 μl) was applied to a column (0.5×4 cm) of Affi-Gel boronate (100 mg, Bio-Rad) which was equilibrated with 0.1 M glycine, pH 9.0, containing 0.1 M NaCl, with or without 10 mM MgCl2, and/or 5 mM DTT, and eluted with five 1-ml portions of the same solution. The total eluate, containing ARH with bound ADP-ribose was collected for liquid scintillation counting.
After incubation of wild-type or mutant ARH3 (1 μM) with [^14C]ADP-ribose (3 μM) (30° C., 16 h) without or with 10 mM MgCl2 and/or 5 mM DTT (total volume 100 μl), unbound ADP-ribose was removed by binding to Affi-gel boronate (Bio-Rad), and ARH3 with ADP-ribose bound, was collected for radioassay. […]

Values joined by “and” are separate entries in the source; they are usually repeats but may differ in a detail not shown here. Equal entries are not always repeated.

B1: ARH3: 39-kDa recombinant protein having both poly(ADP-ribose) glycohydrolase activity and O-acetyl-ADP-ribose hydrolase activity (protein, listed as Homo sapiens)
chain: MAAAAMAAAAGGGAGAARSLSRFRGCLAGALLGDCVGSFYEAHDTVDLTSVLRHVQSLEPDPGTPGSERTEALYYTDDTAMARALVQSLLAKEAFDEVDMAHRFAQEYKKDPDRGYGAGVVTVFKKLLNPKCRDVFEPARAQFNGKGSYGNGGAMRVAGISLAYSSVQDVQKFARLSAQLTHASSLGYNGAILQALAVHLALQGESSSEHFLKQLLGHMEDLEGDAQSVLDARELGMEERPYSSRLKKIGELLDQASVTREEVVSELGNGIAAFESVPTAIYCFLRCMEPDPEIPSAFNSLQRTLIYSISLGGDTDTIATMAGAIAGAYYGMDQVPESWQQSCEGYEETDILAQSLHRVFQKS
Usually Km stands for the substrate concentration at which the rate is half of its maximum. In the case of B1, the “Cell viability after H2O2 challenge” value in data set [1] was “significantly reduced the toxic effect of H2O2”. In addition, the Michaelis-Menten constant (Km) in data set [2] (1.5 pmol ARH3, 30° C., 20 min, pH 7.0, 10 mM MgCl2, 5 mM DTT) is 7.4 ± 0.7 µM. Besides, in data set [2] (1.5 pmol ARH3, 30° C., 20 min, pH 7.0, 10 mM MgCl2, 5 mM DTT, means ±½ range of duplicates), the “Vmax, O-acetyl-ADP-ribose hydrolysis” value is 173 ± 8.4 nmol/min/mg. The “kcat, O-acetyl-ADP-ribose hydrolysis” value in data set [2] (comparison with mNudT5) was 0.0052 ± 0.0033 s⁻¹. Moreover, the “Rate of O-acetyl-ADP-ribose hydrolysis relative to that of ARH1” value in data set [2] (times / -fold the rate with ARH1, recombinant mouse proteins, 2 h at 30° C.) was 250 and > 250.

B2: human ARH3: human ARH3 amino acid sequence SEQ ID NO: 2, synthesized as GST-fusion product in E. coli (protein, listed as Homo sapiens)
chain: B1 chain
modifications: GST fusion
As to B2, in data set [3] (40 nM hydrolase, 60 min, 37° C.), the “Substrate remaining, [14C]poly(ADP-ribose)PARP” value is approximately 75%. The “Release of [14C]ADP-ribose from [14C]poly(ADP-ribose)PARP relative to wild-type ARH3” value in data set [3] (50 nM human ARH3 (wild-type or mutant), ~2 μM ADP-ribose, HPLC C18) is 100%. Also, the “Poly(ADP-ribose) hydrolysis (in words)” value in data set [3] ([32P]poly(ADP-ribose) or poly(ADP-ribose)PARP, 37° C., autoradiography / PAGE / HPLC) is given as “hydrolyzed”. The “[14C]ADP-ribose binding” value in data set [4] is “similar”.
